Assay results reported in patent US20150284813A1.

Target: bioluminescent capsule containing ALuc16 in its frame structure (DEVD sequence as cargo)
Assay: cell-based or functional assay

Sequence of bioluminescent capsule containing ALuc16 in its frame structure (DEVD sequence as cargo) (chain, as listed by the source, form in doubt): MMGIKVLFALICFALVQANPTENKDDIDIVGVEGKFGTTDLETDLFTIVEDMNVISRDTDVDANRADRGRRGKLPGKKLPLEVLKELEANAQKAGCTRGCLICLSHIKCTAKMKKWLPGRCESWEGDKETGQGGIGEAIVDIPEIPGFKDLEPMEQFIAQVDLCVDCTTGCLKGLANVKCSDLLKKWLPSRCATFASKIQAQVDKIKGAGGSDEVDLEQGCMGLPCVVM

With Caspase-3 (enzyme) the luminescence intensity of COS-7 cells with versus without STS (two minutes), LAS-4000 image was 2 folds.
